This data set concerns the molecule itself. In words: DSS crosslinking in solution of 35S-labelled protein translated in vitro, SDS/polyacrylamide gel (self-association). Here is the method:
With respect to (1), the effect of the Skn-1i inhibitory region on dimerization in solution was assayed by the ability of a homobifunctional crosslinking agent [disuccnidyl suberate (DSS)] to crosslink in vitro translated proteins.
Specifically, approximately 100,000 cpm of ^35S-labeled Skn-1i, Δ32Skn-1i, 1–99 (N/T) Skn1-i and Δ60 (N/T) Skn1-i proteins were added separately to […] of binding buffer (10 mM HEPES [pH7.8], 50 mM K CI, 5% glycerol). After 15 minutes at room temperature, […] of DSS (suspended in 5 mg/ml DMSO) or DMSO alone was added to each of the reactions. After 5 minutes, the reaction was stopped by adding SDS sample buffer to each which was then boiled prior to analyses on SDS/polyacrylamide gels. To quantitate crosslinking efficiency, monomers ("M" on FIG. 12) and dimers ("D" on FIG. 12) were excised from the gel and counted by scintillation counting.

These results are taken from patent publication US5484732, “Transcription factor for regulation of the development of skin and hair” (The Regents of the University of California, dated 1996).

B1: Δ32 Skn-1i (other)
chain: LQPNLLSFPQQQSTLLLPQTGPGLTSQAVGRPGLSGSSLEPHLEASQHLPGPKHLPGPGGNDEPTDLEELEKFAKTFKQRRIKLGFTQGDVGLAMGKLYGNDFSQTTISRFEALNLSFKNMCKLKPLLEKWLNDAESSPADPSASTPSSYPTLSEVFGRKRKKRTSIETNIRLTLEKRFQDNPKPSSEEISMIAEQLSMEKEVVRVWFCNRRQKEKRINCPVATPVKPPIYNSRLVSPSGSLGSLSVPPVHSTMPGTVTSSCSPGNNSRPSSPGSGLHASSPTASQNNSKAAMNPSSAAFNSSGSWYRWNHPAYLH
Take B1: the binding result was “no binding”.
